Starred links: 1 amine or outer side, 2 acyl side, 3 side chain; linkers in the order of their positions; H or OH if unused. Non-standard residues stand in square brackets, D forms with d. Primed or numbered codes have the meaning given here. *: point of attachment. AC4Abu = α-carboxy-4-aminobutyric acid, O=C(C(CCN[*:1])C(=O)[*:3])[*:2]; dBip = N[C@H](Cc1ccc(-c2ccccc2)cc1)C(=O)O; Oic = O=C(O)[C@@H]1C[C@@H]2CCCC[C@@H]2N1; Phe(4-Cl) = N[C@@H](Cc1ccc(Cl)cc1)C(=O)O; Phe(4-I) = N[C@@H](Cc1ccc(I)cc1)C(=O)O; γGlu = O=C(O)[C@H](CCC(=O)[*:2])N[*:1]; d(β3hF) = N[C@@H](CC(=O)O)Cc1ccccc1; NMeR = CN[C@@H](CCCNC(=N)N)C(=O)O; Palmitoyl = CCCCCCCCCCCCCCCC(=O)*; Tridecanoyl = CCCCCCCCCCCCC(=O)*; hArg = N=C(N)NCCCC[C@H](N)C(=O)O; β3hF = N[C@H](CC(=O)O)Cc1ccccc1; Cha = N[C@@H](CC1CCCCC1)C(=O)O; NMeL = CN[C@@H](CC(C)C)C(=O)O; Tle = CC(C)(C)[C@H](N)C(=O)O; αMeP = C[C@@]1(C(=O)O)CCCN1; AC4Abu″ = not defined here; β3hP = O=C(O)C[C@@H]1CCCN1; αMeS = C[C@](N)(CO)C(=O)O; Nle = CCCC[C@H](N)C(=O)O; AMEF = not defined here; Deg = CCC(N)(CC)C(=O)O; AEEA = NCCOCCOCC(=O)O; Aib = CC(C)(N)C(=O)O
Experiments:
Assay in all cases: cell-based or functional assay
human APJ receptor [1] = biological target: T1, human APJ receptor (human, UniProt P35414 1-380)
T1 sequence (looked up): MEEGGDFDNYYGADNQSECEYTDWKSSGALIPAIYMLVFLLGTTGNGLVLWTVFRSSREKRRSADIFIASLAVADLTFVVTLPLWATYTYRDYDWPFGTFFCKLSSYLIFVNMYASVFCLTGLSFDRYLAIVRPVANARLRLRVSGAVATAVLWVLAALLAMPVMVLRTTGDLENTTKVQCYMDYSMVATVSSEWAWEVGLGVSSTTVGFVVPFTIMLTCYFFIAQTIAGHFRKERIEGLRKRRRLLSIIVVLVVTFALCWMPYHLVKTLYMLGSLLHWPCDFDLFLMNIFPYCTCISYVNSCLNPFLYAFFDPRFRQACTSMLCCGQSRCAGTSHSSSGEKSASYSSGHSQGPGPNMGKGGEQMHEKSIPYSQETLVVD

rat APJ receptor [2] = biological target: T2, rat APJ receptor (rat, UniProt Q9JHG3 1-377)
T2 sequence (looked up): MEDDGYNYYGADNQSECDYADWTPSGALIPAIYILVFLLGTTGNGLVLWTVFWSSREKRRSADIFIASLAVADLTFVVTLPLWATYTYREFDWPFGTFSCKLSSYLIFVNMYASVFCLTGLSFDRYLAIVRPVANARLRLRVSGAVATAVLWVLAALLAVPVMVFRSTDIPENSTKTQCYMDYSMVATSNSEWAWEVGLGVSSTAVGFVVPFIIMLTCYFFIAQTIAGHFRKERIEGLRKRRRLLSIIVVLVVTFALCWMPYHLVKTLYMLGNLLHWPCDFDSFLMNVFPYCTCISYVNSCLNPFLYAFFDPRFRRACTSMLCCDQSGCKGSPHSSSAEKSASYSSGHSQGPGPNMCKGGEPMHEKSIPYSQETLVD

human APJ receptor [3] = biological target: T3, human APJ receptor (human, UniProt P35414 1-380); remark: listed apart in the source
T3 sequence (looked up): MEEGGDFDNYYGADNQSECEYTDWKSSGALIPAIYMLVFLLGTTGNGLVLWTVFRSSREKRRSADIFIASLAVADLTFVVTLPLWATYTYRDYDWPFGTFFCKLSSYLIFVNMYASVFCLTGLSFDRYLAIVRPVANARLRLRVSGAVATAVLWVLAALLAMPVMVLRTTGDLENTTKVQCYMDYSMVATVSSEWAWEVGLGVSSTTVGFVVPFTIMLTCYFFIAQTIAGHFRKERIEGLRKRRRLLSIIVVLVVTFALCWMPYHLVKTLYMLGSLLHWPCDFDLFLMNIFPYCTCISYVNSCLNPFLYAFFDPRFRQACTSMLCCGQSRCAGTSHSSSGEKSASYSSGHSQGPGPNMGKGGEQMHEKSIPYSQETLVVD

rat APJ receptor [4] = biological target: T4, rat APJ receptor (rat, UniProt Q9JHG3 1-377); remark: listed apart in the source
T4 sequence (looked up): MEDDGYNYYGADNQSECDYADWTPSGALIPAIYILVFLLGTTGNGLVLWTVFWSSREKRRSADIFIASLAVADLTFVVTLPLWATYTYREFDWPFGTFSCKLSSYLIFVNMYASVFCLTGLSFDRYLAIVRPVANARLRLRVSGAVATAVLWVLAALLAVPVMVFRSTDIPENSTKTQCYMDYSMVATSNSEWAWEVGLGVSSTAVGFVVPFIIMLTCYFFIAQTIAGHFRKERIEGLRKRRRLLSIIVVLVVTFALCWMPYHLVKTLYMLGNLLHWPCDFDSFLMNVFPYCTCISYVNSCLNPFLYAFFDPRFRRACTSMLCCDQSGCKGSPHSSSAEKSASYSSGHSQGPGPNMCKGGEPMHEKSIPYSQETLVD

Binder	EC50 Human APJ Receptor (GTPγS assay) (human APJ receptor [1])	EC50 Rat APJ Receptor (GTPγS assay) (rat APJ receptor [2])	EC50 Human APJ Receptor (human APJ receptor [3])	EC50 Rat APJ Receptor (rat APJ receptor [4])
Tridecanoyl-[γGlu][AEEA][AEEA][dQ]RP[NMeR][Cha]SHK[Tle][Oic][Nle][Aib][Phe(4-Cl)]-OH (SMILES CCCCCCCCCCCCC(=O)N[C@@H](CCC(=O)NCCOCCOCC(=O)NCCOCCOCC(=O)N[C@H](CCC(N)=O)C(=O)N[C@@H](CCCNC(=N)N)C(=O)N1CCC[C@H]1C(=O)N(C)[C@@H](CCCNC(=N)N)C(=O)N[C@@H](CC1CCCCC1)C(=O)N[C@@H](CO)C(=O)N[C@@H](Cc1c[nH]cn1)C(=O)N[C@@H](CCCCN)C(=O)N[C@H](C(=O)N1[C@H](C(=O)N[C@@H](CCCC)C(=O)NC(C)(C)C(=O)N[C@@H](Cc2ccc(Cl)cc2)C(=O)O)C[C@@H]2CCCC[C@@H]21)C(C)(C)C)C(=O)O) [Apelin polypeptide SEQ ID NO: 543]	0.583 nM	1.4 nM		
Tridecanoyl-[γGlu][AEEA][AEEA][dQ]RP[NMeR][Cha]SHKG[Oic][Nle]P[Phe(4-Cl)]-OH (SMILES CCCCCCCCCCCCC(=O)N[C@@H](CCC(=O)NCCOCCOCC(=O)NCCOCCOCC(=O)N[C@H](CCC(N)=O)C(=O)N[C@@H](CCCNC(=N)N)C(=O)N1CCC[C@H]1C(=O)N(C)[C@@H](CCCNC(=N)N)C(=O)N[C@@H](CC1CCCCC1)C(=O)N[C@@H](CO)C(=O)N[C@@H](Cc1c[nH]cn1)C(=O)N[C@@H](CCCCN)C(=O)NCC(=O)N1[C@H](C(=O)N[C@@H](CCCC)C(=O)N2CCC[C@H]2C(=O)N[C@@H](Cc2ccc(Cl)cc2)C(=O)O)C[C@@H]2CCCC[C@@H]21)C(=O)O) [Apelin polypeptide SEQ ID NO: 377]	0.388 nM	0.447 nM		
XXXQRPRLSHKGPXPF ({Decanoyl}[AC4Abu][Aeea][Aeea]QRP[NMeArg]LSHKGP[Nle]P[4-Cl-F]{COOH}) [SEQ ID NO: 494]			0.0221 nM	
Palmitoyl-[AC4Abu″][AEEA][AEEA][dQ]RP[NMeR][Cha]SHKG[Oic][Nle]P[AMEF]-OH (reading uncertain) [SEQ ID NO: 606]			0.307 nM	
Tridecanoyl-[AC4Abu][AEEA][AEEA]QRP[NMeR][Cha]SHKG[Aib][Nle]P[Phe(4-Cl)]-OH (SMILES CCCCCCCCCCCCC(=O)NCCC(C(=O)O)C(=O)NCCOCCOCC(=O)NCCOCCOCC(=O)N[C@@H](CCC(N)=O)C(=O)N[C@@H](CCCNC(=N)N)C(=O)N1CCC[C@H]1C(=O)N(C)[C@@H](CCCNC(=N)N)C(=O)N[C@@H](CC1CCCCC1)C(=O)N[C@@H](CO)C(=O)N[C@@H](Cc1c[nH]cn1)C(=O)N[C@@H](CCCCN)C(=O)NCC(=O)NC(C)(C)C(=O)N[C@@H](CCCC)C(=O)N1CCC[C@H]1C(=O)N[C@@H](Cc1ccc(Cl)cc1)C(=O)O) [Apelin polypeptide SEQ ID NO: 414]	3.39 nM	3.79 nM		
Palmitoyl-[AC4Abu″][AEEA][AEEA][dQ]RP[NMeR][Cha][αMeS]HKG[Oic][Nle][β3hP][d(β3hF)]-OH (reading uncertain) [SEQ ID NO: 642]			0.332 nM	
Tridecanoyl-[AC4Abu][AEEA][AEEA]QRP[NMeR][Cha]SHKG[Deg][Nle]P[Phe(4-Cl)]-OH (SMILES CCCCCCCCCCCCC(=O)NCCC(C(=O)O)C(=O)NCCOCCOCC(=O)NCCOCCOCC(=O)N[C@@H](CCC(N)=O)C(=O)N[C@@H](CCCNC(=N)N)C(=O)N1CCC[C@H]1C(=O)N(C)[C@@H](CCCNC(=N)N)C(=O)N[C@@H](CC1CCCCC1)C(=O)N[C@@H](CO)C(=O)N[C@@H](Cc1c[nH]cn1)C(=O)N[C@@H](CCCCN)C(=O)NCC(=O)NC(CC)(CC)C(=O)N[C@@H](CCCC)C(=O)N1CCC[C@H]1C(=O)N[C@@H](Cc1ccc(Cl)cc1)C(=O)O) [Apelin polypeptide SEQ ID NO: 415]	3.92 nM	4.01 nM		
Tridecanoyl-[γGlu][AEEA][AEEA][dQ]RP[NMeR][Cha]SHKG[αMeP][Nle][Aib][Phe(4-Cl)]-OH (SMILES CCCCCCCCCCCCC(=O)N[C@@H](CCC(=O)NCCOCCOCC(=O)NCCOCCOCC(=O)N[C@H](CCC(N)=O)C(=O)N[C@@H](CCCNC(=N)N)C(=O)N1CCC[C@H]1C(=O)N(C)[C@@H](CCCNC(=N)N)C(=O)N[C@@H](CC1CCCCC1)C(=O)N[C@@H](CO)C(=O)N[C@@H](Cc1c[nH]cn1)C(=O)N[C@@H](CCCCN)C(=O)NCC(=O)N1CCC[C@@]1(C)C(=O)N[C@@H](CCCC)C(=O)NC(C)(C)C(=O)N[C@@H](Cc1ccc(Cl)cc1)C(=O)O)C(=O)O) [Apelin polypeptide SEQ ID NO: 498]	0.0299 nM	0.138 nM		
Tridecanoyl-[AC4Abu][AEEA][AEEA]QRP[NMeR][Cha]SHKG[β3hP][Nle]P[Phe(4-Cl)]-OH (SMILES CCCCCCCCCCCCC(=O)NCCC(C(=O)O)C(=O)NCCOCCOCC(=O)NCCOCCOCC(=O)N[C@@H](CCC(N)=O)C(=O)N[C@@H](CCCNC(=N)N)C(=O)N1CCC[C@H]1C(=O)N(C)[C@@H](CCCNC(=N)N)C(=O)N[C@@H](CC1CCCCC1)C(=O)N[C@@H](CO)C(=O)N[C@@H](Cc1c[nH]cn1)C(=O)N[C@@H](CCCCN)C(=O)NCC(=O)N1CCC[C@H]1CC(=O)N[C@@H](CCCC)C(=O)N1CCC[C@H]1C(=O)N[C@@H](Cc1ccc(Cl)cc1)C(=O)O) [Apelin polypeptide SEQ ID NO: 417]	5.99 nM	8.1 nM		
Tridecanoyl-[γGlu][AEEA][AEEA][dQ]RP[NMeR][Cha]SHKG[αMeP][Nle][β3hP][Phe(4-Cl)]-OH (SMILES CCCCCCCCCCCCC(=O)N[C@@H](CCC(=O)NCCOCCOCC(=O)NCCOCCOCC(=O)N[C@H](CCC(N)=O)C(=O)N[C@@H](CCCNC(=N)N)C(=O)N1CCC[C@H]1C(=O)N(C)[C@@H](CCCNC(=N)N)C(=O)N[C@@H](CC1CCCCC1)C(=O)N[C@@H](CO)C(=O)N[C@@H](Cc1c[nH]cn1)C(=O)N[C@@H](CCCCN)C(=O)NCC(=O)N1CCC[C@@]1(C)C(=O)N[C@@H](CCCC)C(=O)N1CCC[C@H]1CC(=O)N[C@@H](Cc1ccc(Cl)cc1)C(=O)O)C(=O)O) [Apelin polypeptide SEQ ID NO: 545]	1.3 nM	3.7 nM		
Ac-[hArg]EQ[hArg]P[dR][NMeL]SHKG[Oic][Phe(4-I)]P[dBip]-OH [SEQ ID NO: 76]			1.84 nM	0.994 nM
XXXQRPRLSHKGPXPF ({hexanoyl}[AC4Abu][Aeea][Aeea]QRP[NMeArg]LSHKGP[Nle]P[4-Cl-F]{COOH}) [SEQ ID NO: 492]			0.0376 nM	
XXXQRPRLSHKGPXPF ({Acetyl-NH}[AC4Abu][Aeea][Aeea]QRP[NMeArg]LSHKGP[Nle]P[4-Cl-F]{COOH}) [SEQ ID NO: 88]			0.22 nM	0.388 nM
Ac-[hArg]Q[hArg]P[NMeR][Cha]SHKG[Oic][Nle]P[Phe(4-Cl)]-OH [SEQ ID NO: 60]			0.224 nM	4.48 nM
Tridecanoyl-[γGlu][AEEA][AEEA][dQ]RP[NMeR][Cha]SHKG[αMeP][Nle][Phe(4-Cl)]-OH (SMILES CCCCCCCCCCCCC(=O)N[C@@H](CCC(=O)NCCOCCOCC(=O)NCCOCCOCC(=O)N[C@H](CCC(N)=O)C(=O)N[C@@H](CCCNC(=N)N)C(=O)N1CCC[C@H]1C(=O)N(C)[C@@H](CCCNC(=N)N)C(=O)N[C@@H](CC1CCCCC1)C(=O)N[C@@H](CO)C(=O)N[C@@H](Cc1c[nH]cn1)C(=O)N[C@@H](CCCCN)C(=O)NCC(=O)N1CCC[C@@]1(C)C(=O)N[C@@H](CCCC)C(=O)N[C@@H](Cc1ccc(Cl)cc1)C(=O)O)C(=O)O) [Apelin polypeptide SEQ ID NO: 551]	0.235 nM	1.15 nM		
Tridecanoyl-[γGlu][AEEA][AEEA]QRP[NMeR][Cha]SHKG[Oic][Nle]P[β3hF]-OH (SMILES CCCCCCCCCCCCC(=O)N[C@@H](CCC(=O)NCCOCCOCC(=O)NCCOCCOCC(=O)N[C@@H](CCC(N)=O)C(=O)N[C@@H](CCCNC(=N)N)C(=O)N1CCC[C@H]1C(=O)N(C)[C@@H](CCCNC(=N)N)C(=O)N[C@@H](CC1CCCCC1)C(=O)N[C@@H](CO)C(=O)N[C@@H](Cc1c[nH]cn1)C(=O)N[C@@H](CCCCN)C(=O)NCC(=O)N1[C@H](C(=O)N[C@@H](CCCC)C(=O)N2CCC[C@H]2C(=O)N[C@H](CC(=O)O)Cc2ccccc2)C[C@@H]2CCCC[C@@H]21)C(=O)O) [Apelin polypeptide SEQ ID NO: 379]	7.52 nM	8.38 nM		
